The values that follow come from paper PMC8983682 (Nature Communications, 2022).

The target of the experiment is full-length N1-CA09-sNAp-130, membrane-anchored, C-terminal myc tag (Influenza A virus A/California/07/2009 …, UniProt C7FH46, stabilised). Description: flow cytometry on cells. As to conditions: one partner purified.

B1: CD6 IgG (antibody, V domains shown)
VH: QVKLQESGGGLVQPKGSLKLSCAASGFTFNTYAMNWVRQAPGKGLEWVARIRSKSNNYATFYADSVKDRFTISRDDSQSMLYLQMHNLKTDDTAMYYCVRPSIYYYASGYLDVWGAGTTVTVSS
VL: QIVLSQSPAILSASPGEKVTMTCRTSSSVSYMHWYQQKPGSSPKPWIYATSNLASGVPFRFSGSGSGTSYSLTISRVEAEDAATYYCQQWNSNPPTFGGGTKLEIK
notes: copies: 2 + 2
Consider B1, for which the binding result is given as “binds”.
